# Assay: soluble on expression in E. coli; label from the status in PepcDB or PDB records
row,Sequence,soluble on expression in E. coli
1,MLKTILSIAGKPGLYKLISQGKNMLIVETVDAAKKRVPAYAHDKVISLADIAMYTDAEEVPLSEVLEAVKKKENGAVASINYKKASADELHAYFAEVLPNYDRDRVHNGDIKKLISWYNILVNNGITEFVEAPADSADKVEEAVAELEHHHHHH,soluble
2,MLKTPSDAAVAGCLSLLLEVSGNPKAGNVDREHDFDDLKFEHFLASAAGAFPAFLEVAEKRIIGEGVLRAVKESMRWHRAENVHFGAFLLLVPLISSWDAG,not soluble
3,MLLEIKDLVYKASDRIILDHISLKVDKGESIAIIGPSGSGKSTFQKQICNLFSPTSGELYFKGKPYNDYDPEELRQRISYLMQQSDLFGETIEDNMIFPSLARNDKFDRKRAKQLIKDVGLGHYQLSSEVENMSGGERQRIAIARQLMYTPDILLLDESTSALDVNNKEKIENIIFKLADQGVAIMWITHSDDQSMRHFQKRITIVDGQISNTEELNQHE,soluble
4,MLLLRITMLEGRSTEQKAELARALSAAAAAAFDVPLAEVRLIIQEVPPTHWTVGGISMAELRQQASTSTQGQ,soluble
5,MLLMMVVGLTAGVLAGCANPKDTTEEFLTAIQKGDIEKARTFVESDKEFNKLNEKTDDAEAKAMLSAITKNFKFEKLEEVSKKDDKAEVKVKITSADLSVAVTKAVGEVMPMAFASAFSEDKEQSEKAIEKTMTSTIIKNLTDKDAAMATREVTLNLKKDKDGDYKIVADDNLKEVLFANAKSLEKMFGGK,not soluble
6,MLLNLDVRMQLKELAQKEFKEPVSIKLFSQAIGCESCQTAEELLKETVEVIGEAVGQDKIKLDIYSPFTHKEETEKYGVDRVPTIVIEGDKDYGIRYIGLPAGLEFTTLINGIFHVSQRKPQLSEKTLELLQVVDIPIEIWVFVTTSCGYCPSAAVMAWDFALANDYITSKVIDASENQDLAEQFQVVGVPKIVINKGVAEFVGAQPENAFLGYIMAVYEKLKREKEQA,soluble
7,MLLQELHIYSEQSSSNTKVSIKNKDGEILFEYCYSNDAIPTFNPIELLRLSLEGDIGVLFQMKTSISQKSKKDDFRISCEQSRSETSRMNQ,not soluble
8,MLLSLYIPPGRPIPDVLNLLRQEYSIAQNIKLKRTRDAVTSAIQSAIDRLTQIPKVPDNGLVIFCGENFETEESKCFVFSPPEKVTIFFYRTDKYFHTEFLEDMIEENDVFGLIIVERDYATIGILKGTRIEVLDEFEGFVPGKHMMGGQSQRRIDRIIEEMYANFLKEVGEKANSYLLPYLESGKLKGILLGGPGYAKKDFYDGDYLDYRLKKLVLLPLIDIPDQGDAGLKELVMKAQDILKNQKYVQVQNLLEELKYHIAKDDGLVVYGIEEIRKALHMGAVDSLVIYDEPNSELEKLSQEAENYGTKVYVVGDELPDAEWVKKTFGGAIGKLRYKIY,soluble
9,MLLTNKGDVMLGLKQVHHIAIIATDYAVSKAFYCDILGFTLQSEVYREARDSWKGDLALNGQYVIELFSFPFPPERPSRPEACGLRHLAFSVDDIDAAVAHLESHNVKCEAIRVDPYTQKRFTFFNDPDGLPLELYEQ,not soluble
10,MLLVMGAHESGLDRARLQSLYEQLVATNEDETEKLAASGHSTGLVASEWARFLAPFDFGYRLVALQRESKRVAAALTRALYGIDTSGASEHDPLWAVEHRVLPVPVTDRLLFCEMRFLLVLALSRRLWMRLERVDPLGQENPFPRDAEIIERVEDLARQSRERLALLAERSPEALNAGKQEAHDCIEDLRTKETRAAEQVAGFAQALGDAALLEKVWHALVDEIAQNRQLNHALLQTLCQWVLMLIGADTEVPSSASCSDE,soluble
11,MLMIKGIIFDMDGVLFDTEPFYLRRREDFFKTKGIPIDHLNSKDFIGGNLQELWKELLGKNRDDAIVKAITTDYDAYKQAHKPPYQKLLITEVNSCLEQLEKQGIKLAVASNSKRQDVLLALETTQIKDYFEIILAREDVSRGKPYPDIYNKAVQKLGLQKKQLLVVEDSQKGIAAAKAANLTVFAITDYRYGIDQSQADHKIDHLGQLCVKIGCFGS,not soluble
12,MLMPRRMKYRKQQRGRLKGATKGGDYVAFGDYGLVALEPAWITAQQIEAARVAMVRHFRRGGKIFIRIFPDKPYTKKPLEVRMGKGKGNVEGYVAVVKPGRVMFEVAGVTEEQAMEALRIAGHKLPIKTKIVRRDAYDEAQ,soluble
13,MLNIDNIQSLIDNGEGYNVEFKVRVPSKVRELTEEICAFANADGGYLLIGVDDNGQVVDTNLENDKRSAIQGSISEISPTLHCELYSVNLGDKTVWVIDVPSSKDKPYIFSGSIYVREGANSQKLRTAEEIRSFFQECNKIYFDHIPCHWFNIYTDADAQMIKDFRTEAKLSPSTPRQTNILEHHHHHH,soluble
14,MLNIQNYSASPHPGIVAERPQTPSASEHVETAVVPSTTEHRGTDIISLSQAATKIHQAQQTLQSTPPISEENNDERTLARQQLTSSLNALAKSGVSLSAEQNENLRSAFSAPTSALFSASPMAQPRTTISDAEIWDMVSQNISAIGDSYLGVYENVVAVYTDFYQAFSDILSKMGGWLLPGKDGNTVKLDVTSLKNDLNSLVNKYNQINSNTVLFPAQSGSGVKVATEAEARQWLSELNLPNSCLKSYGSGYVVTVDLTPLQKMVQDIDGLGAPGKDSKLEMDNAKYQAWQSGFKAQEENMKTTLQTLTQKYSNANSLYDNLVKVLSSTISSSLETAKSFLQGLEHHHHHH,soluble
15,MLNKEIKGALIVSCQALADEPLHSSFIMSKMALAAKQGGAKGIRANSVVDIRAIRKEVDLPIIGIIKRDYPDAEVYITATMREVDELMAVQPEIIALDATHSKRPNGETLATFFKRIKEKYPNQEWMADCSTLEEMIEAAELGFDYIGTTLVGYTPQSENQRIEQNDFELLREAKKHFTTPIIAEGMIDTPAKVQRVLELGTYSVVVGSVITRPQKITEKFVEATKIKQNQA,not soluble
16,MLNLFRNRKRNGAGPTIKKAQKMPELDDFLSNQDYEGAISLLNHKLKAGNLDREEEDSLQLWLAHCYYRLRNYEEAANVYTFLMNKDDAPAELGVYLACCKFYLKQYIEAKSIAEKCPKTPLCIRLMMNVSLRLNDEKRILTFHSSLGDTLEDRLSLAGVNYSRMHYQDAIEVYTSVLQTSPNLIGLNVNMALCYAKMDYPHVAYNLIKNYLRNFPNSPFAKNLLLSVLYRTITSKTTVDEKSELARNIDQEGLTMVSDMEALLKQKLYPEIEYICKHNLVLFKNCETALQVLPSLMKHIPEARVNLILYHLNKNNVKDAISLCKDFDPVTPYEFLVKALTFLRHGQETNSREHLKIAENFFQMVGESGLVQDTIAGRQSSAAYLFLSFKFDDVITYLKSIEAYFTNNDDFLLNLAQAYLMYKNYVAAEKLFIRVSGPERDKILYKSMLARCYVRNKKPQSAWDMMLKTNNPSDRMSLLKVIAQDCYIANEFYYASKAFHEIEISDPTTENWSGKRGACAGLFRQLANHKTDPILISQMREVVHLVAMKPHSNCEFLLKVVRNWAETHNVNIIN,not soluble
17,MLNQPRLDEIMRLLAQQQRVKASDLAQLLFVSEETIRRDFKHLEEEGRLRRIHGGAILPRSSEELPLQERSRLKPRAKAGIATCAAQLVTEGMAIFLDTGTSTLALAQQLTRFSQLKIITNSLDIAQLISHQSDNQVLVAPGDVRRTDNALIGPHTLEFARQFHYDIAFMGIGGIDLDLGLMDYQEPEAMLRRTLVRHCARSVVLADDGKFGHRTFINTLPFAAITTLVTNRPLSDEFATRLEKDHVDTLYP,not soluble
18,MLNVGDSVQIAGCSTKKRLLETSSGCDSFDTLIGGALVNSSIVLIDEYRSRCYGSYLIRSFLAEGLHHGHRCFIADPTEDPKEINLIPSRRTSTDMQNQEIPNSLPAENENSMKIAWRYGNVKQVSSSLGPLSNENQYDFTKHVENPNVDVYAEKVFTLKGIYETLCQIVKENEAHTKSGGRGGPKKNLLRVVLKNIDMEICEDYKFLGRFLCCLRSLARSSYMIVYITANSFRVPKPTWRILESAADTHIQLMPFDENEKKMFKHLGTAHGYFHLKSLPRLMSVGTHTPPILDLIFEASSRKGFQIRVMHLPPAFDEPAPGHQNTPSCQNIDF,soluble
19,MLPKSSLKETQQALANAIRLGNADPLNGYAASRLAVYTRLVRNNAFGFIDRCFVEAPLHIEPEYWKNAKENFVQNGNAHSPYFQDIAGEFLLFCQEKEIFDTNILALMDFENTQLLAEVSLAKVPEKFEWNRHSVMQLSGAAYLKSYDVDFLSSDFKQFDDTPIQAIIWRDSDFRIQQQILSELDYWLLSYLQEQPNSLENVLSALNTMVEDSTSIIPLLEQVWMKWVTSEVIYPEQR,not soluble
20,MLPLIRKMKPTDAAALTIINKEQLGYEVPVDVTCKQIEKLLLASDREFLYVYEETKTGKILGYVHAQLYETIYSQTLLNVLGLAVAKEAEGRGIGKQLMTKLETEAKKCNLSAIRLNSGEQRTAAHQFYEHIGYVSDKKQKRFIKYLDT,not soluble
21,MLPRLGGFLAGFSSTISSFLPKTTASTLFTHQSSQFSTSFPAWRNNFLQFIHYRNGPPKRRARSKDKSAISGYSHYKGIVLKTVIRHPKKPNSGNRKCAIVRLSTGAEVCAYIPNVGHNLQEHSQVLVKGGRRRDLISVKANIVRGKYDCAPAGGRK,not soluble
22,MLQKDPCLDDILENSEKLENNSNKKNIDSIDTIKLSDIIEKMIEINSIVRIEKIFEEKIVSQNPVVNVVVNDGSARGLLSLWSEQISLLNELNEGDAILIENAHAPKKYKDRIHLALSKSGKISKIESDLPTIDELLKKSSAQRNDFSRKSISELKEGIGAELRGLIVAIHSKEPYFPVCDKCNKKMTLKKGYAVCKCGNKVDEEDENLKWLFLCTCTLDDGSGTIRVTLNNNTNYLDLEELKKIIIDDEEILDVLNNKLLGLDILTSGFTIYDEYLKDTAFRCNNWNKIDIMEEFNKKLKGLEHHHHHH,soluble
23,MLRFDHLVHAVHGTPEEAAKQMQELGFHTVLGGEHTNWGTWNSLSYFDLSYIEFLAVQYEEKAKEAENPLVQETVVKLQNGEGMLQIAIRTDAIEELAVNFNKYGLHTIGPFEGKRMRKDGRLLEWKMLFVKQEENGPKLPFFIQWNETDEERRNDLRNSGTITEHKNKVQQIETIHYAVKNVRETVRKWKEVMELSTSSVVKIEKWNAECQSVVFGDIHVQFCEPIGEGLVLEHLNKNGENPFAVEFKGGNKREHEVLGSLYIY,not soluble
24,MLRIGLTGGIGAGKSLLSTTFSQCGGIVVDGDVLAREVVQPGTEGLASLVDAFGRDILLADGALDRQALAAKAFRDDESRGVLNGIVHPLVARRRSEIIAAVSGDAVVVEDIPLLVESGMAPLFPLVVVVHADVELRVRRLVEQRGMAEADARARIAAQASDQQRRAVADVWLDNSGSPEDLVRRARDVWNTRVQPFAHNLAQRQIARAPARLVPADPSWPDQARRIVNRLKIACGHKALRVDHIGSTAVSGFPDFLAKDVIDIQVTVESLDVADELAEPLLAAGYPRLEHITQDTEKTDARSTVGRYDHTDSAALWHKRVHASADPGRPTNVHLRVHGWPNQQFALLFVDWLAANPGAREDYLTVKCDADRRADGELARYVTAKEPWFLDAYQRAWEWADAVHWRP,soluble
25,MLRQIGEFYHQGEKDDTSRVWMTCWHHGGRILASCGDDKAVRVWSLVGEPDSKMRLECRTTLDDSHTRAVRSVAFSNDGKCLVSASFDASVVVYQQEDGEFAEVNKLEGHESEVKCAVFSKSDEFLATCSRDKSVWFWQQDEDEDFSVSSILQPHTQDVKQVAWHPTEDLLVSCSYDSSIRFYRFDGEDWVTQQKIDGCHVGTVWSIAFDTEGHRLVTVGEDHCIQLFVRENIGSKSADQDTWKSVARYDVENTRWPLYSVAWNSTNDVIATGGGDCKIRLFKISSTPESPVIEHLGVVGRHELDVNHVAWNPNPKFSNLLTSASDDGTIRLWELEI,not soluble
